Assay results taken from patent publication US9023767B2, “γ-Secretase substrates and methods of use” (Memorial Sloan-Kettering Cancer Center, priority 2009, dated 2015).
Values belong to the molecule of their own block, whether it stands above or below them. Where a SMILES comes first, the peptide text is derived from it. [ ]: non-standard residue; d: D form. The star is where a group is joined. Biotin = O=C1N[C@H]2[C@H](CS[C@H]2CCCCC(=O)*)N1; Bpa = N[C@@H](Cc1ccc(C(=O)c2ccccc2)cc1)C(=O)O; Sta = CC(C)C[C@H](N)[C@@H](O)CC(=O)O; Isovaleryl = CC(C)CC(=O)*

Key:
[1] = target: T1, γ-secretase (Homo sapiens (Human), UniProt P49768+Q92542); experiment: Photoaffinity labeling of γ-secretase in HeLa membrane by Aβ17-23BPA20-biotin; type: binding; conditions: probe 300 nM
Procedure: FIG. 4. […] Various concentrations of inhibitor were incubated with APP substrate (S4) or Notch peptide substrate containing the C-terminal biotinylated transmembrane domain of Notch1 and HeLa cell membrane in the presence of 0.25% CHAPSO. Aβ40 was detected by G2-10 antibody. The cleaved Notch product was detected by Val1744 antibody that specifically recognizes the cleaved product between Gly1743 and Val1744. Activities are expressed as percentage relative to reading that was produced in DMSO control. […] Various concentrations of S4 substrate were incubated with HeLa membrane in fixed concentrations of inhibitor as indicated. The double reciprocal velocity (1/v) and substrate concentrations (1/S) are plotted to determine the type of inhibition. […] Assays were conducted as described in FIG. 4A. […] The labeled samples were solubilized with RIPA buffer. Biotinylated proteins were captured with streptavidin-agarose and probed by immunoblotting using antibodies against biotin, PS1-CTF, PS1-NTF, Nicastrin, PEN-2 and APH-1a. HeLa cell membrane proteins were directly loaded onto lanes indicated by an arrow in the PEN-2 and APH-1a blots as positive controls. […] Upper panel: PS1-NTF; Lower panel: PS1-CTF.
The labeled proteins were eluted with 2×SDS sample buffer and analyzed with Western blotting using antibodies against the components of γ-secretase complex. Protein concentration was determined with the Dc protein assay kit (Bio-Rad)
After the photolyzed membranes were solubilized, biotinylated proteins were captured, eluted and analyzed by western blotting with antibodies against biotin, PS1, nicastrin, PEN-2 and APH-1.

[2] = target: T2, γ-secretase (Homo sapiens (Human), UniProt P49768); experiment: HTRF γ-secretase assay with Sb4 substrate; type: biochemical; conditions: for pilot screen result: 10 μM, 1536-well
Text: We set out to transfer the assay conditions obtained with the ECL method to an HTRF detection based format (FIG. 10b). The HTRF detection mixture consisted of mouse G2-10 antibody for recognition of the C-terminal epitope of the cleaved product, a Europium-labeled anti-mouse antibody (commonly, an antibody is conjugated with a cryptate ligand that forms a three dimensional coordination cage structure surrounding a lanthanide such as Eu^3+), along with Streptavidin conjugated to a trimeric form of the fluorescent protein allophycocyanin referred to as XL665. Cleavage of Sb4 substrate allows G2-10 mouse antibody to bind to the Aβ40-processed site on the cleaved substrate. The Steptavidin-XL665 conjugate binds directly with the biotin moiety on the N-terminal end of the Sb4 derived product. The anti-mouse Europium antibody targets to the G2-10 antibody, bringing all of these entities into close proximity. The Europium and XL665 reagents are a compatible pair of donor-acceptor fluorophores, and excitation of Europium at 337 nm results in fluorescence energy resonance transfer (FRET) to XL665 which fluoresces at 665 nm (FIG. 10b).
Human γ-secretase was prepared from HeLa cell membranes as described previously (Li et al., 2000). Briefly, HeLa cell pellet was resuspended in 1×MES buffer (50 mM MES, pH 6.0, 150 mM KCl, 5 mM CaCl2, 5 mM MgCl2) and treated with ‘complete’ protease inhibitor (Boehringer Mannheim). The resuspended pellet was mechanically homogenized by passing the cells through the French Press (Spectronic Instruments), and subsequently spun down at 800 g to remove cell debris and nuclei. Next, the supernatants were spun at 100,000 g in order to pellet the membranes. The pelleted membranes were resuspended in 1×MES buffer to approximately 12 mg/ml. This entire procedure was performed at 4° C. HeLa membranes were solubilized using 1% CHAPSO detergent in 1×MES buffer with protease inhibitors. After incubating for 1 hr at 4° C., the membrane was spun down at 100,000 g and the supernatants were collected and stored at −70° C. The collected fraction is defined as solubilized γ-secretase.
HTRF conditions were initially optimized in a 384-well format using a final volume of 20 μl. The high control for this assay was defined as the observed γ-secretase activity in the presence of 1% DMSO (v/v) and the low control as the activity observed when including 100 nM final concentration of Compound E (v/v). First, we determined a tolerable DMSO concentration that would not interfere with γ-secretase activity. Even with 3% DMSO (v/v) present in the assay mixture, there was virtually no effect on the γ-secretase activity (FIG. 11a), which was critical as delivery of library screening compounds required a final concentration of 2% DMSO (v/v) in the γ-secretase reaction. Next, we titrated the HTRF mixture components in an effort to minimize reagent costs for use in high throughput screening. […] Additionally, we varied Europium conjugated anti-mouse antibody and determined that 1 nM of this reagent in the HTRF mixture was sufficient for our assay conditions even though the signal continued to increase with higher concentrations of the anti-mouse antibody (FIG. 11c).
We have further miniaturized the HTRF assay from the established 384-well format to a 1536-well platform enabling more efficient screening of large chemical libraries. […] Based on these optimization experiments, we set our final assay conditions at 0.3 nM G2-10, 1 nM anti-mouse antibody, 15 nM Streptavidin-XL665, and proceeded with the assay at 10 μl final volume (5 μl γ-secretase mix+5 μl HTRF mix) in the 1536-well format for screening.
The pilot assay was performed in duplicate on two separate days to account for any day-to-day variability. […]

[3] = target: T1, γ-secretase; experiment: In vitro γ-secretase assay, HeLa membrane, APP-derived substrates, ECL detection; type: biochemical; conditions: for γ-secretase activity %: cleavage of the substrate at the Aβ40 site, HeLa membrane, G2-10 antibody; for effect on γ-secretase processing of the S3 substrate (in trans): peptide 0.1, 1 and 10 μM, S3 0.5, 1 and 2 μM; for inhibition of X40 production / suppression of Aβ production: 1 μM βCTF substrate
Procedure: The recombinant proteins were incubated with γ-secretase (40 μg/ml) in the presence or absence of 1 μM γ-secretase inhibitor L-685,458 (CAS [292632-98-5], shown below). The reaction mixture contains 0.25% 3[(3-cholamidopropyl) dimethylammonio]-2-hydroxypropanesulfonic acid (CHAPSO), 0.1 μg/μl BSA, protease inhibitor, 50 mM PIPES, pH 7.0, 5 mM MgCl2, 5 mM CaCl2 and 150 mM KCl. The reaction was incubated for 2.5 hr at 37° C. and stopped by adding RIPA buffer (150 mM NaCl, 1.0% NP-40, 0.5% sodium
[drawing 1] deoxycholate, 0.1% SDS, 50 mM Tris HCl, pH 8.0). The products were detected with various antibody combinations as previously described (Lai et al., 2003; J. Biol. Chem., 278: 22475-22481; Li et al., 2000, Proc. Natl. Acad. Sci. USA, 97: 6138-6143; Yin et al., 2007, J. Biol. Chem., 282:23639-23644) using electrochemiluminescence (ECL). The amount of product was determined using synthetic peptide or recombinant standards. The Km and Vmax were determined from the Michaelis-Menten equation Michaelis-Menten Kinetics (ν=Vm[S]/([…]; ν: initial rate; Vm: maximum velocity; Km: the Michaelis-Menten constant, S: substrate). P-values were calculated from Student t-test. 7.1.5 Cell-Based Aβ Production Assay and Western Blot

[4] = target: T2, γ-secretase; experiment: In vitro γ-secretase assay, solubilized γ-secretase, ECL; type: biochemical; conditions: substrate 1 μM, background with Compound E
Text: The γ-secretase cleaved Aβ product derived from C100Flag substrate was detected by a pair of antibodies (biotinylated 4G8 and ruthenylated G2-10*) while Sb4 cleaved product was detected by ruthenylated G2-10* alone (FIG. 10a) and quantified using electrochemiluminescence (ECL) technology.
An in vitro assay was based on the one previously reported by Li et al. (2000), except we utilized Sb4 substrate that eliminated the need for biotinylated antibody. […] All assays incorporate ruthenylated G2-10* antibody to detect 40-site cleavage of APP or recombinant Sb4 substrate and quantitated activity by measuring ECL.

Molecule: CC(C)C[C@H](N)C(=O)N[C@H](C(=O)N[C@@H](Cc1ccccc1)C(=O)N[C@@H](Cc1ccc(C(=O)c2ccccc2)cc1)C(=O)N[C@@H](C)C(=O)N[C@@H](CCC(=O)O)C(=O)N[C@@H](CC(=O)O)C(=O)N[C@@H](CCCCNC(=O)CCCC[C@@H]1SC[C@@H]2NC(=O)N[C@@H]21)C(=O)O)C(C)C [Aβ17-23BPA^20-biotin] (H-LVF[Bpa]AEDK(Biotin)-OH; N-terminus and C-terminus assumed)
photolabeled bands, PS1 [1]: co-migrated with PS1-CTF and PS1-NTF | photolabeling of PEN-2 and APH1a [1]: not PEN-2 or APH1a | photolabeling of nicastrin [1]: labels nicastrin

Molecule: N.N.[Cl][Pt][Cl] [Cisplatin]
pilot screen result [2]: active compound

Molecule: CC(C)CC(=O)N[C@H](C(=O)N[C@H](C(=O)N[C@@H](CC(C)C)[C@@H](O)CC(=O)N[C@@H](C)C(=O)N[C@@H](CC(C)C)[C@@H](O)CC(=O)O)C(C)C)C(C)C [Pepstatin A] (Isovaleryl-VV[Sta]A[Sta]-OH)
pilot screen result [2]: active compound | IC50 ([2]; dose response, read-out: IC50, HTRF assay): 6.43 µM

Molecule: O=C(O)CCCC[C@@H]1SC[C@@H]2NC(=O)N[C@@H]21 [biotin]
pilot screen result [2]: active hit

Molecule: AviTag-KGAIIGLMVGGVVIATVIVITLVMLKKK [S1]
γ-secretase activity % [3]: 100 ± 4.2%

Molecule: AviTag-LVFFAEDVGSNKGAIIGLMVGGVVIATVIVITLVMLKKK [S2]
γ-secretase activity % [3]: None

Molecule: C100Flag: truncated APP protein used in previously published γ-secretase assays
ratio of signal to background [4]: 7 to 1

Molecule: P3-42: synthetic P3 peptide Aβ17-42 (LVFFAEDVGSNKGAIIGLMVGGVVIA; Amyloid-beta protein 42; UniProt P05067 688-713, looked up, fragment)
inhibition of Aβ40 production ([3]; 1, 3, 10 and 30 nM, βCTF or βCTFΔ substrate): did not inhibit

B2: S3: AviTag substrate from Aβ17 with C-terminal tail of APP and FLAG (protein, listed as Homo sapiens)
chain: GLNDIFEAQKIEWHELVFFAEDVGSNKGAIIGLMVGGVVIATVIVITLVMLKKKQYTSIHHGVVEVDAAVTPEERHLSKMQQNGYENPTYKFFEQMQNDYKDDDDK
γ-secretase activity % [3]: None

Further lines, with some results ahead:

inhibition of γ-secretase activity, APP processing [3]: no inhibition | effect on γ-secretase processing of the S3 substrate (in trans) [3]: no difference
Molecule: Aβ1-7: Aβ1-16 derived synthetic peptide (DAEFRHD; Amyloid-beta protein 42; UniProt P05067 672-678, looked up, fragment)

effect on γ-secretase processing of the S3 substrate (in trans) [3]: no difference
Molecule: Aβ8-16: Aβ1-16 derived synthetic peptide (SGYEVHHQK; Amyloid-beta protein 42; UniProt P05067 679-687, looked up, fragment)

inhibition of X40 production ([3]; 0.25 μM): 24% | suppression of Aβ production ([3]; 0.25 μM): 66% | inhibition of X40 production ([3]; 0.5 μM): 32% | suppression of Aβ production ([3]; 0.5 μM): 71% | inhibition of X40 production ([3]; 1.0 μM): 60% | suppression of Aβ production ([3]; 1.0 μM): 82%
Molecule: αCTF: recombinant α-secretase cleaved APP C-terminal fragment

rate of γ-secretase hydrolysis relative to αCTF-FLAG ([3]; X40 production, 4G8/G2-10 antibodies): 12 fold
Molecule: βCTF: recombinant β-secretase cleaved APP C-terminal fragment
Vmax ([3]; Aβ40 product, 6E10/G2-10, ECL): 16 ± 1 min⁻¹ µg⁻¹ | Km ([3]; Aβ40 product, 6E10/G2-10, ECL, read-out: apparent Km): 0.47 ± 0.09 µM

ratio of signal to background [4]: 93 to 1
B1: Sb4: biotinylated AviTag-APP695(620-695) recombinant substrate (protein, listed as Homo sapiens)
chain: GLNDIFEAQKIEWHEVGSNKGAIIGLMVGGVVIATVIVITLVMLKKKQYTSIHHGVVEVDAAVTPEERHLSKMQQNGYENPTYKFFEQMQN
modifications: biotinylated
notes: biotinylated AviTag-APP695(620-695) recombinant substrate
